Laboratory results published in paper PMC5909925 (Molecular Biology of the Cell, 2018).

Key:
[1] = molecular target: T1, full-length mouse His6-αE-catenin (WT) (mouse, UniProt P26231 1-906); assay: BLI
T1 sequence (looked up): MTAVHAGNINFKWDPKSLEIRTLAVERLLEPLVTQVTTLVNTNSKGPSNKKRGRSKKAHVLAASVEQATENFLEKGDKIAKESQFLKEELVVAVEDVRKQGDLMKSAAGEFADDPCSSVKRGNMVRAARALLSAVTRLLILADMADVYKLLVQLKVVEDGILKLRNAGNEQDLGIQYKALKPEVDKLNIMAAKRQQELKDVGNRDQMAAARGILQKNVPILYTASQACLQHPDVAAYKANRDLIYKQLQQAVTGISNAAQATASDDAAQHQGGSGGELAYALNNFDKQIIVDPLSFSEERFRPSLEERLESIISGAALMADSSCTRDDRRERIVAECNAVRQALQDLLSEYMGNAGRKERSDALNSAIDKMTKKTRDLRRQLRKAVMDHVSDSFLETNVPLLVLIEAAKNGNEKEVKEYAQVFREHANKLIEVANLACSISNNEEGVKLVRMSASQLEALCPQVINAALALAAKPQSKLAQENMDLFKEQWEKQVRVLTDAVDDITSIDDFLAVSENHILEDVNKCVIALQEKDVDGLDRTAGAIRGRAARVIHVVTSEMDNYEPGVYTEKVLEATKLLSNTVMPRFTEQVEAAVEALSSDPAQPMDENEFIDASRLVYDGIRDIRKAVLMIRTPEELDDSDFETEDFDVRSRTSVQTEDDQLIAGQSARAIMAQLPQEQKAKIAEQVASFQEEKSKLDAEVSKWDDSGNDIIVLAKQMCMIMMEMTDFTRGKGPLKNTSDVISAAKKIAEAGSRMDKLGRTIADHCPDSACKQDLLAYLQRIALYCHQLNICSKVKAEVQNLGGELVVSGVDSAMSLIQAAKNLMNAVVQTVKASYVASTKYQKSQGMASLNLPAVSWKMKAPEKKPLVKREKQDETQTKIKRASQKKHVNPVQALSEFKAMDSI

[2] = molecular target: T2, full-length mouse His6-αE-catenin R551A (mouse, UniProt P26231 1-906, R551A); assay: BLI
T2 sequence (looked up): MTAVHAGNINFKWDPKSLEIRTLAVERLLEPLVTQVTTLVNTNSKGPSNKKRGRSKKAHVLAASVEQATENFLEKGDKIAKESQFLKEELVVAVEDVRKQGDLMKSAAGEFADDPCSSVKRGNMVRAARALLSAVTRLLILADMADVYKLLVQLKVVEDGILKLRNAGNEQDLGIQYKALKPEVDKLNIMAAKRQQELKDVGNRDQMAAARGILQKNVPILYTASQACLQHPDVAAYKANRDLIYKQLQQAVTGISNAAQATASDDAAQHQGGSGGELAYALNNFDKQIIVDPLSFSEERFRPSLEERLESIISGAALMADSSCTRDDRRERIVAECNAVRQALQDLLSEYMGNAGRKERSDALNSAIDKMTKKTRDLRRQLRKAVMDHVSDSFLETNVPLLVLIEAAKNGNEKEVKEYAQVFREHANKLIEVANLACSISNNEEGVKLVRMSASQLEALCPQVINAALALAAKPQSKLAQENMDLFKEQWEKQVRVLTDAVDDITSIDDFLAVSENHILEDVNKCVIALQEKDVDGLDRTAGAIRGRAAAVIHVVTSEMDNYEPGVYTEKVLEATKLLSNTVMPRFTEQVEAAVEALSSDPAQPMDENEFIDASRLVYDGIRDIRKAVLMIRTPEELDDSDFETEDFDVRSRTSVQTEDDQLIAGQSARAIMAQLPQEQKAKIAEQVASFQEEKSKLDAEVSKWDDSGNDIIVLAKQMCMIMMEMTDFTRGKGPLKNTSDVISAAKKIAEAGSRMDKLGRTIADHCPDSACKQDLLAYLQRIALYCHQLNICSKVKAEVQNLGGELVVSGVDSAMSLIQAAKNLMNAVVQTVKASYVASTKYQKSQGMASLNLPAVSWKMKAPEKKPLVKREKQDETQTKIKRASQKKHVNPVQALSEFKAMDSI

B1: constitutively active vinculin head domain (VHD, residues 1-252) (domain or fragment, human, UniProt P18206 1-252, looked up)
chain: MPVFHTRTIESILEPVAQQISHLVIMHEEGEVDGKAIPDLTAPVAAVQAAVSNLVRVGKETVQTTEDQILKRDMPPAFIKVENACTKLVQAAQMLQSDPYSVPARDYLIDGSRGILSGTSDLLLTFDEAEVRKIIRVCKGILEYLTVAEVVETMEDLVTYTKNLGPGMTKMAKMIDERQQELTHQEHRVMLVNSMNTVKELLPVLISAMKIFVTTKNSKNQGIEEALKNRNFTVEKMSAEINEIIRVLQLTS
Kd [1]: 1800 nM | Kd [2]: 140 nM
